For one substance, Kd results are on record in publication PMC3176149, “Application of Celluspots peptide arrays for the analysis of the binding specificity of epigenetic reading domains to modified histone tails” (BMC Biochemistry, 2011).

The target in the assay is FITC-coupled H3K9me3-S10ph peptide (amino acids 1-19) (UniProt P68431). The assay is described as follows: fluorescence polarisation; fluorescence depolarization in solution, purified FITC-coupled H3 1-19 peptides, Varian Carry Eclipse spectrophotometer, as described [40]; fit to a binary binding equilibrium. A general note: Polarisation of emitted light reports the rotation of a fluorescent probe.

Some results are limits rather than exact numbers.

“MPP8 Chromo domain (M-phase phosphoprotein 8), GST fusion (from UniProt Q99549 58-112) (domain or fragment)” returned a Kd of over 50 µM.

Broadly, the Kd is a measure of binding affinity in units of concentration.
